The sequences below were run on Escherichia coli TOP10 (assay: shrunken log2 fold change of peptide-encoding DNA abundance (4.5 h post-induction vs induction); higher = less antimicrobial activity (less host growth inhibition)). Details: time post-induction: 4.5 h; library: site-saturation at positions 5, 18, 19, 20.
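Note: peptides expressed intracellularly from a pBAD plasmid library in pooled LB shake-flask culture, induced with 0.3% L-arabinose, DNA abundance read by NGS, three biological replicates, DESeq2 with apeglm shrinkage.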

Row | Sequence | shrunken log2 fold change
1 | RRIRYRPPRLPRPRPRPEVMPRP | 0.00902
2 | RRIRYRPPRLPRPRPRPEWAPRP | 0.193
3 | RRIRYRPPRLPRPRPRPEWNPRP | -0.861
4 | RRIRYRPPRLPRPRPRPEYIPRP | -0.348
5 | RRIRYRPPRLPRPRPRPEYLPRP | -0.139
6 | RRIRYRPPRLPRPRPRPFCFPRP | -0.114
7 | RRIRYRPPRLPRPRPRPFCVPRP | -0.264
8 | RRIRYRPPRLPRPRPRPFDAPRP | -0.485
9 | RRIRYRPPRLPRPRPRPFDRPRP | -1.29
10 | RRIRYRPPRLPRPRPRPFDTPRP | -1.81
11 | RRIRYRPPRLPRPRPRPFEDPRP | -0.057
12 | RRIRYRPPRLPRPRPRPFEIPRP | -0.17
13 | RRIRYRPPRLPRPRPRPFGEPRP | -0.00973
14 | RRIRYRPPRLPRPRPRPFGSPRP | -0.0685
15 | RRIRYRPPRLPRPRPRPFGVPRP | -0.306
16 | RRIRYRPPRLPRPRPRPFGWPRP | 0.102
17 | RRIRYRPPRLPRPRPRPFHCPRP | -0.0983
18 | RRIRYRPPRLPRPRPRPFHFPRP | -0.19
19 | RRIRYRPPRLPRPRPRPFKIPRP | 0.0602
20 | RRIRYRPPRLPRPRPRPFKQPRP | -1.41
21 | RRIRYRPPRLPRPRPRPFLTPRP | -0.871
22 | RRIRYRPPRLPRPRPRPFMDPRP | -0.2

Row | Sequence | shrunken log2 fold change
23 | RRIRYRPPRLPRPRPRPFNFPRP | -0.771
24 | RRIRYRPPRLPRPRPRPFNNPRP | 2.81
25 | RRIRYRPPRLPRPRPRPFNVPRP | 0.0019
26 | RRIRYRPPRLPRPRPRPFPSPRP | -0.0392
27 | RRIRYRPPRLPRPRPRPFQSPRP | -0.0418
28 | RRIRYRPPRLPRPRPRPFRTPRP | -0.0801
29 | RRIRYRPPRLPRPRPRPFTEPRP | -0.955
30 | RRIRYRPPRLPRPRPRPFTIPRP | -0.00992
31 | RRIRYRPPRLPRPRPRPFTSPRP | -0.0993
32 | RRIRYRPPRLPRPRPRPFTWPRP | -1.51
33 | RRIRYRPPRLPRPRPRPFVDPRP | -0.0498
34 | RRIRYRPPRLPRPRPRPFVIPRP | -0.31
35 | RRIRYRPPRLPRPRPRPFVLPRP | -0.855
36 | RRIRYRPPRLPRPRPRPFWCPRP | -0.208
37 | RRIRYRPPRLPRPRPRPFWHPRP | -0.556
38 | RRIRYRPPRLPRPRPRPGADPRP | -0.177
39 | RRIRYRPPRLPRPRPRPGCCPRP | -0.309
40 | RRIRYRPPRLPRPRPRPGDDPRP | -0.286
41 | RRIRYRPPRLPRPRPRPGDQPRP | 0.0121
42 | RRIRYRPPRLPRPRPRPGEEPRP | 0.0322
43 | RRIRYRPPRLPRPRPRPGEKPRP | 0.0799
44 | RRIRYRPPRLPRPRPRPGEYPRP | -0.0574

Row | Sequence | shrunken log2 fold change
45 | RRIRYRPPRLPRPRPRPGGHPRP | -0.278
46 | RRIRYRPPRLPRPRPRPGHIPRP | 0.0162
47 | RRIRYRPPRLPRPRPRPGHPPRP | -0.0687
48 | RRIRYRPPRLPRPRPRPGHVPRP | -0.59
49 | RRIRYRPPRLPRPRPRPGIEPRP | -0.276
50 | RRIRYRPPRLPRPRPRPGIFPRP | -0.708
51 | RRIRYRPPRLPRPRPRPGKTPRP | -0.0233
52 | RRIRYRPPRLPRPRPRPGLYPRP | -0.486
53 | RRIRYRPPRLPRPRPRPGPQPRP | -0.151
54 | RRIRYRPPRLPRPRPRPGQRPRP | 0.212
55 | RRIRYRPPRLPRPRPRPGRFPRP | -0.0548
56 | RRIRYRPPRLPRPRPRPGSNPRP | -0.0401
57 | RRIRYRPPRLPRPRPRPGSRPRP | -0.3
58 | RRIRYRPPRLPRPRPRPGSVPRP | -0.101
59 | RRIRYRPPRLPRPRPRPGTWPRP | 0.585
60 | RRIRYRPPRLPRPRPRPHATPRP | -0.191
61 | RRIRYRPPRLPRPRPRPHDSPRP | -0.08
62 | RRIRYRPPRLPRPRPRPHEPPRP | -0.133
63 | RRIRYRPPRLPRPRPRPHFDPRP | 0.144
64 | RRIRYRPPRLPRPRPRPHFFPRP | -0.518
65 | RRIRYRPPRLPRPRPRPHIFPRP | -0.255
66 | RRIRYRPPRLPRPRPRPHIKPRP | -0.887

Row | Sequence | shrunken log2 fold change
67 | RRIRYRPPRLPRPRPRPHKFPRP | -0.609
68 | RRIRYRPPRLPRPRPRPHKQPRP | -0.0853
69 | RRIRYRPPRLPRPRPRPHLIPRP | -0.103
70 | RRIRYRPPRLPRPRPRPHLTPRP | -0.466
71 | RRIRYRPPRLPRPRPRPHLYPRP | -1.35
72 | RRIRYRPPRLPRPRPRPHMAPRP | -0.155
73 | RRIRYRPPRLPRPRPRPHMPPRP | -0.38
74 | RRIRYRPPRLPRPRPRPHNHPRP | -1.01
75 | RRIRYRPPRLPRPRPRPHPIPRP | -0.0356
76 | RRIRYRPPRLPRPRPRPHTAPRP | -0.57
77 | RRIRYRPPRLPRPRPRPHVNPRP | -0.0934
78 | RRIRYRPPRLPRPRPRPHVSPRP | 0.0324
79 | RRIRYRPPRLPRPRPRPHWTPRP | -0.0421
80 | RRIRYRPPRLPRPRPRPHYHPRP | -0.241
81 | RRIRYRPPRLPRPRPRPHYTPRP | -0.936
82 | RRIRYRPPRLPRPRPRPIAIPRP | -0.217
83 | RRIRYRPPRLPRPRPRPICMPRP | -0.018
84 | RRIRYRPPRLPRPRPRPIDIPRP | -0.0256
85 | RRIRYRPPRLPRPRPRPIDQPRP | -0.0356
86 | RRIRYRPPRLPRPRPRPIDTPRP | -0.0431
87 | RRIRYRPPRLPRPRPRPIFRPRP | -0.258
88 | RRIRYRPPRLPRPRPRPIGDPRP | -0.00783

Row | Sequence | shrunken log2 fold change
89 | RRIRYRPPRLPRPRPRPIGWPRP | 0.11
90 | RRIRYRPPRLPRPRPRPIHNPRP | -0.438
91 | RRIRYRPPRLPRPRPRPIHYPRP | -0.655
92 | RRIRYRPPRLPRPRPRPIIDPRP | -1
93 | RRIRYRPPRLPRPRPRPILCPRP | -0.0389
94 | RRIRYRPPRLPRPRPRPIMGPRP | -0.0134
95 | RRIRYRPPRLPRPRPRPINSPRP | -0.184
96 | RRIRYRPPRLPRPRPRPIQHPRP | -0.89
97 | RRIRYRPPRLPRPRPRPIREPRP | -0.271
98 | RRIRYRPPRLPRPRPRPIRWPRP | -0.114
99 | RRIRYRPPRLPRPRPRPISDPRP | -0.237
100 | RRIRYRPPRLPRPRPRPITAPRP | -0.00947
101 | RRIRYRPPRLPRPRPRPITEPRP | -0.101
102 | RRIRYRPPRLPRPRPRPIVAPRP | -0.246
103 | RRIRYRPPRLPRPRPRPIYMPRP | -0.22
104 | RRIRYRPPRLPRPRPRPIYNPRP | 0.36
105 | RRIRYRPPRLPRPRPRPKAEPRP | 0.0881
106 | RRIRYRPPRLPRPRPRPKAFPRP | 0.0171
107 | RRIRYRPPRLPRPRPRPKCAPRP | 0.0118
108 | RRIRYRPPRLPRPRPRPKCFPRP | -0.0925
109 | RRIRYRPPRLPRPRPRPKCWPRP | 0.14

From the supplement of paper PMC9112550, “Optimization of the antimicrobial peptide Bac7 by deep mutational scanning” (BMC Biology, 2022)
